The values that follow come from patent publication US20100150860A1.

Assay [1] concerns the target human fibrin (Sigma, F5386) (human) (UniProt P02671). The assay can be described thus: SEC-HPLC of the mixture after 1 h at 37 C; peak of the bound pair.
The target is the same in assay [2]. The assay can be described thus: SEC-HPLC of the mixture after 1 h at 37 C; second peak (thrombin alone runs at 18.778). (In general: Size exclusion chromatography separates by hydrodynamic size, large species first.)

Sequence of human fibrin (Sigma, F5386) (human) (P02671 36-629, chain 1 of 3): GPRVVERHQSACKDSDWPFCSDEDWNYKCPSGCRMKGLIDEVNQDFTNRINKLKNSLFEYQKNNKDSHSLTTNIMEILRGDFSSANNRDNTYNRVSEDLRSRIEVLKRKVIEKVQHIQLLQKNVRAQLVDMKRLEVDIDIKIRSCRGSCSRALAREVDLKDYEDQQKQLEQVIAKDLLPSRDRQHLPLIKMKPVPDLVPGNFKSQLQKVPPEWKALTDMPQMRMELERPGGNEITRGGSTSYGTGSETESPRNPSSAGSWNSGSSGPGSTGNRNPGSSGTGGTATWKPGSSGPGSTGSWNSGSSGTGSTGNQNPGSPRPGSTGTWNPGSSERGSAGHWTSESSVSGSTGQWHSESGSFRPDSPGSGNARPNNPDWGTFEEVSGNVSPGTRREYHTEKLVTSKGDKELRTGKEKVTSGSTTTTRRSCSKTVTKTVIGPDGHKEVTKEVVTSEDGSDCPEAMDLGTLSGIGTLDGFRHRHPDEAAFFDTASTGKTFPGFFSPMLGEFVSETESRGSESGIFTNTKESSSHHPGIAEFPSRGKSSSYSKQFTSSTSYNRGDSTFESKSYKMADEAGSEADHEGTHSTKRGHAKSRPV
Sequence of human fibrin (Sigma, F5386) (human) (P02675 45-491, chain 2 of 3, further chain): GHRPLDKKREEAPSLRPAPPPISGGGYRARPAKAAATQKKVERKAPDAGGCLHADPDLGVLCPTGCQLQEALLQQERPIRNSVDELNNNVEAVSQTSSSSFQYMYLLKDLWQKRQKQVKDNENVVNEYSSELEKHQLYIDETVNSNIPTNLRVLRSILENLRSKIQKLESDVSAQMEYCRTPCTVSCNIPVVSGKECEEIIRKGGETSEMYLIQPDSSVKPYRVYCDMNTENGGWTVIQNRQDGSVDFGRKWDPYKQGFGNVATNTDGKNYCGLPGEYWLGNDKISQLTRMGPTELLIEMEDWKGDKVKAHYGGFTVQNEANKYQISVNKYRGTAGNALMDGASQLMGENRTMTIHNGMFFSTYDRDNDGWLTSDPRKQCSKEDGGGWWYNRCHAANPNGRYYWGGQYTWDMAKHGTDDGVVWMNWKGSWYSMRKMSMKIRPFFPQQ
Sequence of human fibrin (Sigma, F5386) (human) (P02679 other isoform, or with tags, fused parts or gaps, chain 3 of 3, further chain): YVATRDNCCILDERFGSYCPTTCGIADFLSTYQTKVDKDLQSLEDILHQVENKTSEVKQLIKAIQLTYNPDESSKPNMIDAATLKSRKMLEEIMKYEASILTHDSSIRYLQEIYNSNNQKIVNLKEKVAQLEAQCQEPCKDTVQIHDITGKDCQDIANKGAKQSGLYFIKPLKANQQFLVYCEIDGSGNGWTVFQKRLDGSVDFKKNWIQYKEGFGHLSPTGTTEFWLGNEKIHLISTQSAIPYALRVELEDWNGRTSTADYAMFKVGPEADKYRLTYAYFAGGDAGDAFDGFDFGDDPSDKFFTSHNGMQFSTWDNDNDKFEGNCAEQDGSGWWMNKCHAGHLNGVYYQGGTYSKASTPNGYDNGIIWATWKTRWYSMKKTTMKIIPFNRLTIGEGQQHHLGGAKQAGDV

In the case of “human thrombin (National Institute for the Control of Pharmaceutical and Biological Products, Lot No. 20021105) (from UniProt P00734 328-622) (enzyme)”, the retention time (min), peak 1 in assay [1] worked out at 12.6 min. The retention time (min), peak 2 in assay [2] amounted to 18.6 min.
